Data reported in paper PMC9482650, “Quantitative fragmentomics allow affinity mapping of interactomes” (Nature Communications, 2022).

Assays:
Assay in all cases: holdup assay
Parameters in all cases: key: below the threshold = too weak to quantify, mostly under pKd 3.1 to 4
[1] = target: Inadl_8, Q8NI35
[2] = target: T1, SHANK1, Q9Y566
T1 sequence (Q9Y566 658-767, limits assumed, looked up): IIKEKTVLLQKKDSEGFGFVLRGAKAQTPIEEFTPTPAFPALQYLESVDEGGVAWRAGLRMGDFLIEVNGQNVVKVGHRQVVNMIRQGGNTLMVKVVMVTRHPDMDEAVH

[3] = target: T2, DFNB31_3, Q9P202
T2 sequence (Q9P202 811-907, limits assumed, looked up): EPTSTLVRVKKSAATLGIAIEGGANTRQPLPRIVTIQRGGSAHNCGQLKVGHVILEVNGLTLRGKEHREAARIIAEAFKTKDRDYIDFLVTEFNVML

[4] = target: PTPN3, P26045
PTPN3, P26045, sequence (P26045 505-587): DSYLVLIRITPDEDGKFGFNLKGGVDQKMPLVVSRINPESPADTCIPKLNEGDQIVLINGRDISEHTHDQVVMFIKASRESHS

[5] = target: DLG4_1, P78352
DLG4_1, P78352, sequence (P78352 62-152): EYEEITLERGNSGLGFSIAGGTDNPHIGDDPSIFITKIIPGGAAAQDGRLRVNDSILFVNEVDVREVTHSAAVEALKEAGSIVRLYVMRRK

[6] = target: LNX1_1, Q8TBB1
LNX1_1, Q8TBB1, sequence (Q8TBB1 261-371): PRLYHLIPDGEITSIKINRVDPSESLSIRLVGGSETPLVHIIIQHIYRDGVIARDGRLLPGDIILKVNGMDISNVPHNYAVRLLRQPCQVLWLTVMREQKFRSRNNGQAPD

[7] = target: T3, MPP2, Q14168
T3 sequence (Q14168 180-250, limits assumed, looked up): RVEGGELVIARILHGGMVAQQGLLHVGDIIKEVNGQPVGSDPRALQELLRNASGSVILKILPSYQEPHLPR

[8] = target: FRMPD3, Q5JV73
FRMPD3, Q5JV73, sequence (Q5JV73 12-100): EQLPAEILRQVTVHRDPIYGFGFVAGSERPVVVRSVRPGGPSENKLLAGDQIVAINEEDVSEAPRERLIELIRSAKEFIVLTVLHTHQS

[9] = target: PDZRN4_1, Q6ZMN7
PDZRN4_1, Q6ZMN7, sequence (Q6ZMN7 213-318): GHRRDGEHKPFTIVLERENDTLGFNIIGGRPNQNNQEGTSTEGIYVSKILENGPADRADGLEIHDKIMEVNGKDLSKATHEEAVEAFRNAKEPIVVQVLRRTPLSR

[10] = target: TJP1_2, Q07157
TJP1_2, Q07157, sequence (Q07157 181-274): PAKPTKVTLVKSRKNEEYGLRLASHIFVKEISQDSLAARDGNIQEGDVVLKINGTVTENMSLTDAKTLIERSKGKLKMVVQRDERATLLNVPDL

[11] = target: DLG4_2, P78352
DLG4_2, P78352, sequence (P78352 155-259): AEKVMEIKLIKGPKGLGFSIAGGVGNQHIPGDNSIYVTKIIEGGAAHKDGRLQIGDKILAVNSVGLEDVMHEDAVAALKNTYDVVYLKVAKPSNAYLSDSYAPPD

[12] = target: GORASP1, Q9BQQ3
GORASP1, Q9BQQ3, sequence (Q9BQQ3 1-208): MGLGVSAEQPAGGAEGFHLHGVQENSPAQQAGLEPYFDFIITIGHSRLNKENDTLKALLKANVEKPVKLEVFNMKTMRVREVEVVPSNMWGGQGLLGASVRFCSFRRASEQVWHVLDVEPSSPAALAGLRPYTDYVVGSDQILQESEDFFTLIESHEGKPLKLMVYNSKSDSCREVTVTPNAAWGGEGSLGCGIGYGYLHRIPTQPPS

[13] = target: NHERF4_2, Q86UT5
NHERF4_2, Q86UT5, sequence (Q86UT5 220-308): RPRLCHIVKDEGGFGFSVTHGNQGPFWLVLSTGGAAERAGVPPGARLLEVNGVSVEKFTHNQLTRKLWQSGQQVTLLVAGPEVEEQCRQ

[14] = target: T4, RHPN1, Q8TCX5
T4 sequence (Q8TCX5 508-602, limits assumed, looked up): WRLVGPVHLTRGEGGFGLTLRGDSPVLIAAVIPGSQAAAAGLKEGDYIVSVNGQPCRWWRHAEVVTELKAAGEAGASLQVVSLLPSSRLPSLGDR

[15] = target: T5, SYNJ2BP, P57105
T5 sequence (P57105 8-110, limits assumed, looked up): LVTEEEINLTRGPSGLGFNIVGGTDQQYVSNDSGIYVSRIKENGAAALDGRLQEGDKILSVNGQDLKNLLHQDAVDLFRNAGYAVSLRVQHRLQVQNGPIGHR

[16] = target: T6, SNTG1, Q9NSN8
T6 sequence (Q9NSN8 52-150, limits assumed, looked up): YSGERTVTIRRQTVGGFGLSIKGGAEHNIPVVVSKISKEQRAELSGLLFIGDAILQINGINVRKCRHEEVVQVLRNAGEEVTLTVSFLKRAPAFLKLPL

[17] = target: MAGI2_3, Q86UL8
MAGI2_3, Q86UL8, sequence (Q86UL8 600-682): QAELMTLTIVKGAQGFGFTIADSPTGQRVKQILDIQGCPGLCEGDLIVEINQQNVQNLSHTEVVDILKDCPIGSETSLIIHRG

[18] = target: GORASP2, Q9H8Y8
[19] = target: T7, LNX2_2, Q8N448
T7 sequence (Q8N448 334-432, limits assumed, looked up): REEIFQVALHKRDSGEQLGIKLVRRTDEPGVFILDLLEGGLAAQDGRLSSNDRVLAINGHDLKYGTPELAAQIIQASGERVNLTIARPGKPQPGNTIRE

[20] = target: NHERF2_2, Q15599
NHERF2_2, Q15599, sequence (Q15599 142-238): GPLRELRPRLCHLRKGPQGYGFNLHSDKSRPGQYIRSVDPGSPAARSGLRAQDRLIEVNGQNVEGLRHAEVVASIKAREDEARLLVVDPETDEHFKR

[21] = target: T8, NHERF3_1, Q5T2W1
T8 sequence (Q5T2W1 4-100, limits assumed, looked up): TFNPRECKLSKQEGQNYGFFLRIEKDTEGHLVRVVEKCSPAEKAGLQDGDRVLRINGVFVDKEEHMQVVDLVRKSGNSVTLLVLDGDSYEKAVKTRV

[22] = target: T9, LIN7C, Q9NUP9
T9 sequence (Q9NUP9 88-185, limits assumed, looked up): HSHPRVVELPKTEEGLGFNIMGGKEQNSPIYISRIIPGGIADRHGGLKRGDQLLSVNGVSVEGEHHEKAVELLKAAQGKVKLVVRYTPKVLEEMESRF

[23] = target: T10, NHERF3_4, Q5T2W1
T10 sequence (Q5T2W1 373-468, limits assumed, looked up): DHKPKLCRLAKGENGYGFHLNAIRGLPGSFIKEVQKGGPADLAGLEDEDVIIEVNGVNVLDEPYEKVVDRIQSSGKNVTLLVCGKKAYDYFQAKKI

[24] = target: SCRIB_1, Q14160
SCRIB_1, Q14160, sequence (Q14160 718-814): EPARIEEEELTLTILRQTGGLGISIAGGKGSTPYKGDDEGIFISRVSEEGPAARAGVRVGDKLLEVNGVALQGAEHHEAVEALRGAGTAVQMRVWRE

[25] = target: MAGI1_2, Q96QZ7
MAGI1_2, Q96QZ7, sequence (Q96QZ7 456-580): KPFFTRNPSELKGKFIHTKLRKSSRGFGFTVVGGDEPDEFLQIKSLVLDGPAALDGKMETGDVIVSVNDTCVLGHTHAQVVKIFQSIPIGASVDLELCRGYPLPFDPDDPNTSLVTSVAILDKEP

[26] = target: T11, DLG3_2, Q92796
T11 sequence (Q92796 221-321, limits assumed, looked up): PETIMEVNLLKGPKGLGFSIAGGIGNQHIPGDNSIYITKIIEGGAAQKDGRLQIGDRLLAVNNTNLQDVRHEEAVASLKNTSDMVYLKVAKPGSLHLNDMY

[27] = target: MAST1, Q9Y2H9
MAST1, Q9Y2H9, sequence (Q9Y2H9 962-1065): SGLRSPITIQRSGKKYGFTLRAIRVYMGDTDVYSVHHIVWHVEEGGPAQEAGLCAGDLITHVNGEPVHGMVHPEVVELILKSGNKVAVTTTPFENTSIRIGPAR

[28] = plain residues with an end cap or a label only (N-terminal biotin on a linker: ttds)
[29] = plain residues with an end cap or a label only (N-terminal biotin on a linker: ahx)
[30] = plain residues with an end cap or a label only (N-terminal biotin on a linker: ado-ado)

Inadl_8, Q8NI35, sequence (Q8NI35 1425-1530): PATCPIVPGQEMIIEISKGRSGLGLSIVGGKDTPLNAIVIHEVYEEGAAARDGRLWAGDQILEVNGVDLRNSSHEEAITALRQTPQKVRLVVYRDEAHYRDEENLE

## EVVHTPETSV [SLC16A3, O15427]
[1]; [28]
  pKd: below the threshold
[2]; [28]
  pKd: below the threshold
[3]; [28]
  pKd: below the threshold
[4]; [28]
  pKd: 4.86
[5]; [28]
  pKd: 3.9
[6]; [28]
  pKd: below the threshold
[7]; [28]
  pKd: below the threshold
[8]; [28]
  pKd: below the threshold
[9]; [28]
  pKd: 4.5
[10]; [28]
  pKd: 3.83
[11]; [28]
  pKd: 4.2
[12]; [28]
  pKd: below the threshold
[13]; [28]
  pKd: below the threshold
[14]; [28]
  pKd: 4.24
[15]; [28]
  pKd: 4.78
[16]; [28]
  pKd: 4.71
[17]; [28]
  pKd: below the threshold
[18]; [28]
  pKd: below the threshold
[19]; [28]
  pKd: below the threshold
[20]; [28]
  pKd: below the threshold
[21]; [28]
  pKd: below the threshold
[22]; [28]
  pKd: 4.07
[23]; [28]
  pKd: below the threshold
[24]; [28]
  pKd: 5.08
[25]; [28]
  pKd: below the threshold
[26]; [28]
  pKd: 4.08
[27]; [28]
  pKd: 4.11

## RLQRRRETQV [HPV18-E6, P06463]
[1]; [28]
  pKd: 3.32
[2]; [28]
  pKd: below the threshold
[3]; [28]
  pKd: below the threshold
[4]; [28]
  pKd: 4.49
[5]; [28]
  pKd: 5.11
[6]; [28]
  pKd: below the threshold
[7]; [28]
  pKd: below the threshold
[8]; [28]
  pKd: below the threshold
[9]; [28]
  pKd: 4.48
[10]; [28]
  pKd: below the threshold
[11]; [28]
  pKd: 5.46
[12]; [28]
  pKd: below the threshold
[13]; [28]
  pKd: below the threshold
[14]; [28]
  pKd: 3.63
[15]; [28]
  pKd: 5.35
[16]; [28]
  pKd: 3.93
[17]; [28]
  pKd: 4.15
[18]; [28]
  pKd: 3.89
[19]; [28]
  pKd: 3.17
[20]; [28]
  pKd: below the threshold
[21]; [28]
  pKd: 4.05
[22]; [28]
  pKd: 4.17
[23]; [28]
  pKd: below the threshold
[24]; [28]
  pKd: 4.26
[25]; [28]
  pKd: 5.97
[26]; [28]
  pKd: 5.46
[27]; [28]
  pKd: 5.33

## HNAFLSVTTV [PDZRN4, Q6ZMN7]
[1]; [29]
  pKd: 3.52
[2]; [29]
  pKd: below the threshold
[3]; [29]
  pKd: below the threshold
[4]; [29]
  pKd: below the threshold
[5]; [29]
  pKd: below the threshold
[6]; [29]
  pKd: below the threshold
[7]; [29]
  pKd: below the threshold
[8]; [29]
  pKd: below the threshold
[9]; [29]
  pKd: 3.5
[10]; [29]
  pKd: below the threshold
[11]; [29]
  pKd: 3.51
[12]; [29]
  pKd: below the threshold
[13]; [29]
  pKd: below the threshold
[14]; [29]
  pKd: below the threshold
[15]; [29]
  pKd: below the threshold
[16]; [29]
  pKd: below the threshold
[17]; [29]
  pKd: 3.49
[18]; [29]
  pKd: 3.55
[19]; [29]
  pKd: 3.87
[20]; [29]
  pKd: below the threshold
[21]; [29]
  pKd: below the threshold
[22]; [29]
  pKd: 3.68
[23]; [29]
  pKd: 3.61
[24]; [29]
  pKd: below the threshold
[25]; [29]
  pKd: 3.61
[26]; [29]
  pKd: 3.61
[27]; [29]
  pKd: 3.65

## RLPKIKETTV [FRMPD4, Q14CM0]
[1]; [28]
  pKd: 3.98
[2]; [28]
  pKd: below the threshold
[3]; [28]
  pKd: below the threshold
[4]; [28]
  pKd: 4.89
[5]; [28]
  pKd: 5.05
[6]; [28]
  pKd: below the threshold
[7]; [28]
  pKd: below the threshold
[8]; [28]
  pKd: below the threshold
[9]; [28]
  pKd: 4.67
[10]; [28]
  pKd: below the threshold
[11]; [28]
  pKd: 5.6
[12]; [28]
  pKd: below the threshold
[13]; [28]
  pKd: below the threshold
[14]; [28]
  pKd: 4.19
[15]; [28]
  pKd: 5.47
[16]; [28]
  pKd: 5.02
[17]; [28]
  pKd: 4.05
[18]; [28]
  pKd: 4.02
[19]; [28]
  pKd: 4.47
[20]; [28]
  pKd: below the threshold
[21]; [28]
  pKd: below the threshold
[22]; [28]
  pKd: 5.29
[23]; [28]
  pKd: below the threshold
[24]; [28]
  pKd: 4.95
[25]; [28]
  pKd: 4.49
[26]; [28]
  pKd: 5.6
[27]; [28]
  pKd: 4.26

## PLSPEQPTKL [TRIM50, Q86XT4]
[1]; [30]
  pKd: below the threshold
[2]; [30]
  pKd: below the threshold
[3]; [30]
  pKd: 3.93
[4]; [30]
  pKd: below the threshold
[5]; [30]
  pKd: below the threshold
[6]; [30]
  pKd: below the threshold
[7]; [30]
  pKd: below the threshold
[8]; [30]
  pKd: below the threshold
[9]; [30]
  pKd: below the threshold
[10]; [30]
  pKd: below the threshold
[11]; [30]
  pKd: below the threshold
[12]; [30]
  pKd: below the threshold
[13]; [30]
  pKd: below the threshold
[14]; [30]
  pKd: below the threshold
[15]; [30]
  pKd: below the threshold
[16]; [30]
  pKd: below the threshold
[17]; [30]
  pKd: below the threshold
[18]; [30]
  pKd: below the threshold
[19]; [30]
  pKd: below the threshold
[20]; [30]
  pKd: 3.86
[21]; [30]
  pKd: 3.53
[22]; [30]
  pKd: 3.82
[23]; [30]
  pKd: 3.7
[24]; [30]
  pKd: below the threshold
[25]; [30]
  pKd: below the threshold
[26]; [30]
  pKd: below the threshold
[27]; [30]
  pKd: 3.97

## GYDWGPATDL [TJP3, O95049]
[1]; [29]
  pKd: 3.49
[2]; [29]
  pKd: 4.39
[3]; [29]
  pKd: below the threshold
[4]; [29]
  pKd: 4.27
[5]; [29]
  pKd: 3.53
[6]; [29]
  pKd: 4.84
[7]; [29]
  pKd: below the threshold
[8]; [29]
  pKd: below the threshold
[9]; [29]
  pKd: below the threshold
[10]; [29]
  pKd: below the threshold
[11]; [29]
  pKd: 3.68
[12]; [29]
  pKd: below the threshold
[13]; [29]
  pKd: below the threshold
[14]; [29]
  pKd: 5.36
[15]; [29]
  pKd: below the threshold
[16]; [29]
  pKd: 4.33
[17]; [29]
  pKd: below the threshold
[18]; [29]
  pKd: below the threshold
[19]; [29]
  pKd: below the threshold
[20]; [29]
  pKd: 4.64
[21]; [29]
  pKd: below the threshold
[22]; [29]
  pKd: 3.71
[23]; [29]
  pKd: below the threshold
[24]; [29]
  pKd: 3.76
[25]; [29]
  pKd: below the threshold
[26]; [29]
  pKd: 3.78
[27]; [29]
  pKd: 4.78
